Measured values reported in publication PMC8372783.

Experiments:
thrombin [1] = biological target: T1, thrombin (human, UniProt P00734;P00734 328-363;364-622); experiment: affinity probe capillary electrophoresis
thrombin [2] = biological target: T1, thrombin; experiment: fluorescence anisotropy
thrombin [3] = biological target: T1, thrombin; experiment: fluorescence anisotropy; remark: listed apart in the source
thrombin [4] = biological target: T1, thrombin; experiment: fluorescence anisotropy; remark: listed apart in the source
thrombin [5] = biological target: T1, thrombin; experiment: fluorescence anisotropy; remark: listed apart in the source
thrombin [6] = biological target: T1, thrombin; experiment: fluorescence anisotropy; remark: listed apart in the source
thrombin [7] = biological target: T1, thrombin; experiment: fluorescence anisotropy; remark: listed apart in the source
thrombin [8] = biological target: T1, thrombin; experiment: affinity probe capillary electrophoresis; remark: listed apart in the source
thrombin [9] = biological target: T1, thrombin; experiment: affinity probe capillary electrophoresis; remark: listed apart in the source

| Binder | Kd (thrombin [1]) | apparent K (half saturation) (thrombin [2]) | apparent K (half saturation) (thrombin [3]) | apparent K (half saturation) (thrombin [4]) | apparent K (half saturation) (thrombin [5]) | apparent K (half saturation) (thrombin [6]) | apparent K (half saturation) (thrombin [7]) | apparent K (half saturation) (thrombin [8]) | apparent K (half saturation) (thrombin [9]) |
| --- | --- | --- | --- | --- | --- | --- | --- | --- | --- |
| GGTTGGTGTGGTTGG (structured_DNA) [15mer, Texas Red] | 4.5 ± 1.4 nM | 23.7 ± 1.1 nM | 25 ± 1.5 nM | 27.3 ± 1.6 nM | 29.7 ± 1.1 nM | 51.8 ± 2.9 nM | 30.4 ± 2.6 nM |  |  |
| GGTTGGTGTGGTTGG (structured_DNA) [15mer Fl (FAM)] |  |  |  |  |  |  |  | 60.9 ± 5.3 nM | 49.2 ± 1.2 nM |
